The numbers were not newly measured in publication PMC7519539, which cites them from elsewhere.

This data set deals with RNA polymerase core (E) (Escherichia coli) (UniProt P0A7Z4).

sigma38, sequence (P13445 whole entry): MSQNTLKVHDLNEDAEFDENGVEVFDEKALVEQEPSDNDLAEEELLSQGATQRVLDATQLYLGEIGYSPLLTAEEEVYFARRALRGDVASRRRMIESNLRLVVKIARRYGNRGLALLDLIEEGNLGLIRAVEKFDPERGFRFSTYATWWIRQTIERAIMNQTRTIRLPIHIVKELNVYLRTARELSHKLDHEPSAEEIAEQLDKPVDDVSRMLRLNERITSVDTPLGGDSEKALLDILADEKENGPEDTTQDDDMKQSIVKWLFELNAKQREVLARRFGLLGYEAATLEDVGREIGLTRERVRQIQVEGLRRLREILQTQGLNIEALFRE

In general, Kd refers to the equilibrium constant for the complex coming apart. As for sigma38 (from UniProt P13445), the dissociation constant Kd was 4.26 nM.
